Measured values published in the supplement of paper PMC12042874.
± gives the uncertainty stated by the source.

Assay: amyloid nucleation score (Sup35N fusion, yeast selection) (log enrichment); library NNK2; higher = more nucleation; inactive = no reads after selection
Summary of the method: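 Sup35N was fused to peptides of 20 random codons and expressed in psi-negative yeast, which were induced with 100 μM copper sulfate for 24 hours and then grown on medium lacking adenine and uracil for 7 days at 30°C. Plasmid inserts from input and output were sequenced on Illumina. The nucleation score is the DiMSum log enrichment of output over input reads, centred on the mode score of non-aggregating sequences. Sequences with under 100 input reads were left out, and random libraries had three technical output replicates.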
Work on VFGVLPIIGYPVRVLCVRFI yielded an amyloid nucleation score of -0.43 ± 1.1. Substance HVYPVWFCWLYSFRLHYSQV has an amyloid nucleation score of -0.149 ± 0.56. LCDMI showed an amyloid nucleation score of 0.544 ± 0.29. In the case of MKYSSFINLLPTTWQHYTMN, the amyloid nucleation score is reported as -0.119 ± 0.65. Substance VIEMRHDRFFTVYSVEITAG has an amyloid nucleation score of 0.623 ± 0.52. Work on WLYNMTRLHIPFYARNWLNS yielded an amyloid nucleation score of 0.352 ± 0.37. LPVREALMRKWMVQLLVFVS gave an amyloid nucleation score of 2.05 ± 0.1. With IPTTQLAHCGQVACPARVVP the amyloid nucleation score was 1.23 ± 0.28. For GTDTTIDLNSYGHYYSLCVR, the amyloid nucleation score was 0.334 ± 0.65. For WFPALEYKCAQGQDRQQRPV, the amyloid nucleation score was 0.351 ± 0.74. With LSIRYLVYEPN the amyloid nucleation score was 0.27 ± 0.36. With CCVVIKN the amyloid nucleation score was 6.08 ± 0.079. For RDWRVFIYFMGNVVLDY, the amyloid nucleation score was 5.59 ± 0.08. For VWGHWPSRFSQQSRCN, the amyloid nucleation score was 0.185 ± 0.5. For TVLVSRFDIIRHRCPTELKR, the amyloid nucleation score was 0.153 ± 0.8. With GVWIFKYCRNNWFGFLIISA the amyloid nucleation score was 3.33 ± 0.1. In the case of IITGLQFLD, the amyloid nucleation score is reported as -0.691 ± 0.79. YGKGDLGRCSLDTSTTLSDW gave an amyloid nucleation score of 0.252 ± 0.65. For SFCMPGISLFLVFRQTDGHM, the amyloid nucleation score was “inactive”. Substance RSCMMCTT has an amyloid nucleation score of 0.266 ± 0.41. NQAYR gave an amyloid nucleation score of 0.12 ± 0.43. For LFWIGWLRRRKKGIGVANKG, the amyloid nucleation score was 0.001 ± 0.49. IDCWCSVSWATAL showed an amyloid nucleation score of -0.4 ± 0.64. In the case of LSGWDVHTSSTSVFRNNFIY, the amyloid nucleation score is reported as “inactive”. With SEENYGRYLAMEVYNYSQAL the amyloid nucleation score was “inactive”. In the case of ICQCRSLRGRAYQVLGVNKS, the amyloid nucleation score is reported as 0.731 ± 0.57. Work on RLTQCLVHRPYPV yielded an amyloid nucleation score of 0.572 ± 0.3. With KSAIVRYQVGRVALEFFAAG the amyloid nucleation score was “inactive”. In the case of RYNRN, the amyloid nucleation score is reported as -0.195 ± 0.36. For IADQTSSSDYLVRTVFNFSV, the amyloid nucleation score was 1.72 ± 0.099. FLRNPPYESTTQGGRPKGAH gave an amyloid nucleation score of 0.134 ± 0.51. SRCEVNTWLLILSGGITPMN gave an amyloid nucleation score of 0.722 ± 0.37. Work on SVFRND yielded an amyloid nucleation score of -0.28 ± 0.3. Substance LMLFDVKGRICGFDLCLIRR has an amyloid nucleation score of 0.381 ± 0.62. For NVPFCIVV, the amyloid nucleation score was 0.213 ± 0.57. Work on LCFNLLNPCGRFGVECGCVL yielded an amyloid nucleation score of 4.53 ± 0.069. Work on PLQPNAIRRSMVSF yielded an amyloid nucleation score of 0.894 ± 0.43. In the case of EGMLGIHRAGFLDGRGKLGL, the amyloid nucleation score is reported as “inactive”. With PPCYALDRFLSGSLTVLSPV the amyloid nucleation score was -0.36 ± 0.35. Work on SVSRSYGEVRLEHTVLETCR yielded an amyloid nucleation score of 0.619 ± 0.64. Work on RVTFSLWFADFIQNNLLKK yielded an amyloid nucleation score of 0.158 ± 0.5. LNMRT showed an amyloid nucleation score of -0.443 ± 0.64. With LGSAYSGKPHVFCS the amyloid nucleation score was “inactive”. Work on HTEFGRVGNICLGMRCEVDW yielded an amyloid nucleation score of 0.792 ± 0.4. In the case of TYMDNFFVSCGMLKQVYASV, the amyloid nucleation score is reported as -0.223 ± 0.16. With YTMASLS the amyloid nucleation score was 1.74 ± 0.13. LMASCHKQRTCRWHPRDRRY showed an amyloid nucleation score of 0.298 ± 0.46. IVDGVYEFKC gave an amyloid nucleation score of -0.779 ± 0.32. CLLVSEQRSRRHRRGALCIG gave an amyloid nucleation score of 0.872 ± 0.32. For PSSDGIRITSDGILMSVDNG, the amyloid nucleation score was 0.918 ± 0.58. DSTPLGYSVLLSWTLVQRNL showed an amyloid nucleation score of 1.38 ± 0.54. In the case of FKSCLAGVGLFILMRFHNIA, the amyloid nucleation score is reported as “inactive”. In the case of KCNVMRQMRFMLPFTVIVVL, the amyloid nucleation score is reported as 0.204 ± 0.31. SNCRLGKGYYNCF gave an amyloid nucleation score of -0.833 ± 0.41. Substance VSVVDGSILMNLCLRLVLRR has an amyloid nucleation score of -0.068 ± 0.79. Work on YNESVHANVYVLLILKGLES yielded an amyloid nucleation score of 6.621 ± 0.048. With RIYLGRQYYRSEGLKQLVNG the amyloid nucleation score was 0.151 ± 0.63. LKISVCQLRLFKLGARTRGW gave an amyloid nucleation score of 0.158 ± 0.8. Work on TVGVCGTLPGSASRHVYFRE yielded an amyloid nucleation score of 0.286 ± 0.24. With IVGSDGGNIFTRLGCSAYRE the amyloid nucleation score was -1.14 ± 0.35. In the case of LKYCVH, the amyloid nucleation score is reported as -0.414 ± 0.61. In the case of LLVGIGMFEEQFQLYHI, the amyloid nucleation score is reported as -0.867 ± 0.29. With YFWTFTSWQTTGRCHSP the amyloid nucleation score was 0.521 ± 0.17. In the case of CMRGLVKAGMIMTVFDRLSY, the amyloid nucleation score is reported as -1.22 ± 1.1. Work on NFFNFSDMYRYGNKIWGGAN yielded an amyloid nucleation score of 0.208 ± 1.1. For RMVTVAS, the amyloid nucleation score was 1.68 ± 0.32. Substance DCSMVIMYFASGRSRALSNR has an amyloid nucleation score of 4.48 ± 0.067. FILPRLIFAGQLSCGFARGV showed an amyloid nucleation score of -1.17 ± 0.76. Work on FLPYVIRRGWSCCPSGKWRN yielded an amyloid nucleation score of 0.03 ± 0.55. Work on SVRMYWAGLLSENKRYNSQS yielded an amyloid nucleation score of 3.89 ± 0.12. KDTMK showed an amyloid nucleation score of -0.001 ± 0.24. With PWTRWGVSFAFKAVNKCVHV the amyloid nucleation score was -1 ± 0.76. LFKDMYSDLKHILNCGFQTT showed an amyloid nucleation score of -0.711 ± 0.45. TFGLHIHKPRMPPHGPWFSL showed an amyloid nucleation score of -0.172 ± 0.34. With HVGLKSLHTMASWFMFDHNI the amyloid nucleation score was “inactive”. With NTLITRVHHDQLPRLSDLLL the amyloid nucleation score was 1.28 ± 0.38. CGRVTTFSLRNVARVCVSAF showed an amyloid nucleation score of -0.308 ± 0.25. Work on ALVCLMKSSFCTCEHLYDVR yielded an amyloid nucleation score of 7.168 ± 0.044. LSGKT showed an amyloid nucleation score of 0.312 ± 0.54. Work on FFTCFTYCDCHNPVMI yielded an amyloid nucleation score of 3.28 ± 0.12. In the case of SRVTYMRATDSMTTVVFWGV, the amyloid nucleation score is reported as 5.31 ± 0.064. In the case of LRLIDNYMGSSRMMS, the amyloid nucleation score is reported as “inactive”. IIEIRAASGPVGFSDINMF showed an amyloid nucleation score of -0.459 ± 1.1. ERRRYLALLQMSMCATGLCY showed an amyloid nucleation score of -0.219 ± 0.43.
